{"source": "paper PMC12489471", "about": "“A multi-dentate, cooperative interaction between endo- and exo-ribonucleases within the bacterial RNA degradosome” (Nucleic Acids Research, 2025)", "molecules": {"B1": {"name": "E. coli PNPase (enzyme, UniProt P05055 1-711, looked up)", "chain": "MLNPIVRKFQYGQHTVTLETGMMARQATAAVMVSMDDTAVFVTVVGQKKAKPGQDFFPLTVNYQERTYAAGRIPGSFFRREGRPSEGETLIARLIDRPIRPLFPEGFVNEVQVIATVVSVNPQVNPDIVAMIGASAALSLSGIPFNGPIGAARVGYINDQYVLNPTQDELKESKLDLVVAGTEAAVLMVESEAQLLSEDQMLGAVVFGHEQQQVVIQNINELVKEAGKPRWDWQPEPVNEALNARVAALAEARLSDAYRITDKQERYAQVDVIKSETIATLLAEDETLDENELGEILHAIEKNVVRSRVLAGEPRIDGREKDMIRGLDVRTGVLPRTHGSALFTRGETQALVTATLGTARDAQVLDELMGERTDTFLFHYNFPPYSVGETGMVGSPKRREIGHGRLAKRGVLAVMPDMDKFPYTVRVVSEITESNGSSSMASVCGASLALMDAGVPIKAAVAGIAMGLVKEGDNYVVLSDILGDEDHLGDMDFKVAGSRDGISALQMDIKIEGITKEIMQVALNQAKGARLHILGVMEQAINAPRGDISEFAPRIHTIKINPDKIKDVIGKGGSVIRALTEETGTTIEIEDDGTVKIAATDGEKAKHAIRRIEEITAEIEVGRVYTGKVTRIVDFGAFVAIGGGKEGLVHISQIADKRVEKVTDYLQMGQEVPVKVLEVDRQGRIRLSIKEATEQSQPAAAPEAPAAEQGE", "notes": "polynucleotide phosphorylase (PNPase), E. coli; also called polynucleotide phosphorylase; full-length PNPase; source: E. coli BL21(DE3), purified (ammonium sulfate, Q, butyl-Sepharose, SEC)"}}, "key": {"PNPase": {"target": "T1, PNPase (Escherichia coli, UniProt P05055)", "T1 construct": "made in house; host or cells: E. coli Evo21(DE3)", "format": "binding, E. coli", "conditions": "SPR, 25°C, immobilized PNPase C-His, HEPES pH 7.2, contact 60 s", "source_text": "Briefly, at the N-terminal of the construct, there is an Hisx6 affinity tag that will be used for affinity purification. Following the Hisx6 tag there is an maltose-binding protein (MBP) tag with a TEV cleavage site to maintain solubility of the peptides. Following the MBP tag the gene encoding the peptide is inserted, and is then followed by intein, a self-cleavable tag, followed by a choline-binding domain, which can be used for an extra step of affinity purification. […] After expression, cells were harvested, resuspended in Lysis Buffer 2 (20 mM Tris–HCl, pH 8.0, 80 mM KCl, 300 mM NaCl, 20 mM Imidazole, 0.5 mM TCEP), and lysed with a cell disruptor (Emulsiflex, Avestin). […] After subsequent rounds of washing with Ni Equilibration Buffer supplemented with, respectively, 0.1% Triton-X, 1 M NaCl, and a final wash in Ni Equilibration Buffer, samples were eluted with Ni Elution Buffer (20 mM Tris–HCl, pH 8.0, 300 mM NaCl, 300 mM imidazole, 0.5 mM TCEP). Enriched fractions were then supplemented with 100 mM β-mercaptoethanol to catalyse intein self-cleavage overnight at room temperature. Treated samples were filtered and loaded on an amylose gravity flow column, equilibrated with Amy Equilibration Buffer (20 mM Tris–HCl, pH 8.0, 20 mM NaCl, 20 mM imidazole, 2 mM β-mercaptoethanol) and after washing, His-tagged TEV protease was applied to the resin and incubated at 4°C for 2 h.\nPNPase carrying a C-terminal Hisx6 tag was expressed from pExp-cis-Ec_PNP-CHis vector in E. coli Evo21(DE3) cells, induced with 0.4 mM IPTG, at 18°C overnight. After expression, cells were harvested and resuspended in Lysis Buffer 2 (20 mM Tris–HCl, pH 8.0, 80 mM KCl, 300 mM NaCl, 20 mM imidazole, 0.5 mM TCEP), and lysed with a cell disruptor (Emulsiflex, Avestin). […] After subsequent rounds of washing with equilibration buffer supplemented with 0.1% Triton-X, or 1 M NaCl, the sample was eluted with Ni PNPCHis Elution Buffer (20 mM NaH2PO4, pH 8.0, 300 mM NaCl, 300 mM KCl, 5 mM MgCl2, 300 mM imidazole, pH 7.5, 10 mM β-mercaptoethanol). […] Fractions containing PNPase were run through a HiPrep™ 26/10 Desalting Column (GE Healthcare) and buffer exchanged to Q PNPCHis A (20 mM NaH2PO4, pH 8.0, 30 mM NaCl, 10% glycerol, 0.5 mM TCEP).\nInteraction measurements were made using a Biacore T200 instrument (GE) at 25°C. PNPase with a 6xHisTag at the CTD was immobilized on a Series S Sensor Chip NTA (Cytiva) to provide a signal of 5 response units (RU). […] For the SPR analysis of the point mutants, binding to PNPase was measured at four different concentrations (0, 12.5, 25, and 50 nM). All concentrations were run in duplicates. The contact time was 60 s, while the dissociation time was 120 s, at a […] flow rate. […] The chip surface was regenerated with 350 mM EDTA in water, following manufacturer's instructions. Data were processed using the manufacturer’s BIAevaluation software."}, "[1]": {"target": "the molecule itself", "test": "SEC-MALS; Superdex 200 10/300 Increase, 100 µl at ~1 mg/ml, 25°C; buffer A (50 mM Tris pH 7.5, 100 mM NaCl, 100 mM KCl, 0.01% w/v b-DDM, 1 mM TCEP) or B (A without b-DDM) as Table S2 tells for each sample; the 1:1 ratio is one RNase E segment to one PNPase trimer (expected mass = trimer plus one segment)"}, "[2]": {"test": "SEC-MALLS molar mass of PNPase and PNPase/RNase E complexes", "format": "physicochemical", "description": "Estimation of molar masses of PNPase and the various PNPase/RNase E complexes was carried out by size-exclusion chromatography with multi-angle laser light scattering (SEC-MALLS). Proteins (100 μl at ∼1 mg/ml concentration) were loaded onto a Superdex 200 10/300 Increase GL SEC column (GE Healthcare) at 0.5 ml/min using an AKTA Purifier FPLC system ([…]). Chromatograms were acquired using UNICORN software (GE Healthcare) at 280 nm. The eluent from the S200 column was analysed with an online DAWN HELEOS II MALLS instrument with eight detectors (Wyatt Technology), followed by an Optilab T-rEX differential refractometer (Wyatt Technology) at 25°C. Data collection and analysis were performed using ASTRA 6 software (Wyatt Technology). Eluted peaks from SEC column were evaluated by Zimm Plot, using a dn/dc value of 0.1850 ml/g. Bovine serum albumin was used as a standard to confirm the system performance (Supplementary Table S1)."}, "E. coli PNPase": {"target": "B1", "test": "SEC-MALS; Superdex 200 10/300 Increase, 100 µl at ~1 mg/ml, 25°C; buffer A (50 mM Tris pH 7.5, 100 mM NaCl, 100 mM KCl, 0.01% w/v b-DDM, 1 mM TCEP) or B (A without b-DDM) as Table S2 tells for each sample; the 1:1 ratio is one RNase E segment to one PNPase trimer (expected mass = trimer plus one segment)", "conditions": "both partners purified"}, "[3]": {"conditions": "Superdex 200, 25°C, buffer B: A w/o bDDM"}}, "note": "Read-outs that look alike come from different tables or passages of the source. Where no end group is shown, it is not given here.", "data": [{"molecule": "GAAGGHTATHHASAAPARPQPVE [RNase E 1039-1061]", "values": [{"measurement": "KD range in words", "setting": "PNPase; listed as RNase E peptide 1039–1061", "result": "micromolar range"}, {"measurement": "KD range in words", "setting": "PNPase; listed as residues 1039–1061", "result": "low μM range"}]}, {"molecule": "E. coli PNPase core, lacking S1 and KH domains (domain or fragment, UniProt P05055 1-552, looked up, polynucleotide phosphorylase (PNPase), E. coli, core aa 1-552 by the methods (1-550 in the results), without the KH and S1 domains; The results and a legend give 1-550 for the core, the methods 1-552; source: E. coli Evo21(DE3), purified (Ni-NTA, intein cleavage, butyl, Q, SEC); not shown: Mycobacterium xenopi GyrA intein, C-terminal, cleaved; His8, C-terminal, cleaved) MLNPIVRKFQYGQHTVTLETGMMARQATAAVMVSMDDTAVFVTVVGQKKAKPGQDFFPLTVNYQERTYAAGRIPGSFFRREGRPSEGETLIARLIDRPIRPLFPEGFVNEVQVIATVVSVNPQVNPDIVAMIGASAALSLSGIPFNGPIGAARVGYINDQYVLNPTQDELKESKLDLVVAGTEAAVLMVESEAQLLSEDQMLGAVVFGHEQQQVVIQNINELVKEAGKPRWDWQPEPVNEALNARVAALAEARLSDAYRITDKQERYAQVDVIKSETIATLLAEDETLDENELGEILHAIEKNVVRSRVLAGEPRIDGREKDMIRGLDVRTGVLPRTHGSALFTRGETQALVTATLGTARDAQVLDELMGERTDTFLFHYNFPPYSVGETGMVGSPKRREIGHGRLAKRGVLAVMPDMDKFPYTVRVVSEITESNGSSSMASVCGASLALMDAGVPIKAAVAGIAMGLVKEGDNYVVLSDILGDEDHLGDMDFKVAGSRDGISALQMDIKIEGITKEIMQVALNQAKGARLHILGVMEQAINAPRGDISEFA", "values": [{"measurement": "stoichiometry N", "setting": "[1]", "result": 3}]}, {"molecule": "B1", "values": [{"measurement": "stoichiometry N", "setting": "[1]", "result": 3}]}, {"molecule": "RNase E 511-1061 (domain or fragment, E. coli, UniProt P21513 511-1061, looked up, The construct is described nowhere in the methods) ALPSEEEFAERKRPEQPALATFAMPDVPPAPTPAEPAAPVVAPAPKAAPATPAAPAQPGLLSRFFGALKALFSGGEETKPTEQPAPKAEAKPERQQDRRKPRQNNRRDRNERRDTRSERTEGSDNREENRRNRRQAQQQTAETRESRQQAEVTEKARTADEQQAPRRERSRRRNDDKRQAQQEAKALNVEEQSVQETEQEERVRPVQPRRKQRQLNQKVRYEQSVAEEAVVAPVVEETVAAEPIVQEAPAPRTELVKVPLPVVAQTAPEQQEENNADNRDNGGMPRRSRRSPRHLRVSGQRRRRYRDERYPTQSPMPLTVACASPELASGKVWIRYPIVRPQDVQVEEQREQEEVHVQPMVTEVPVAAAIEPVVSAPVVEEVAGVVEAPVQVAEPQPEVVETTHPEVIAAAVTEQPQVITESDVAVAQEVAEQAEPVVEPQEETADIEEVVETAEVVVAEPEVVAQPAAPVVAEVAAEVETVAAVEPEVTVEHNHATAPMTRAPAPEYVPEAPRHSDWQRPTFAFEGKGAAGGHTATHHASAAPARPQPVE", "values": [{"measurement": "Mn number-averaged solute molar mass", "setting": "[2]; [3]", "result": "63,870 Da"}, {"measurement": "Mw weight-averaged solute molar mass", "setting": "[2]; [3]", "result": "64,020 Da"}, {"measurement": "Difference Mn from expected mass", "setting": "[2]; buffer B, expected: trimer:RNase E 1:1 ratio for complexes", "result": 4.4, "unit": "%"}, {"measurement": "stoichiometry N", "setting": "E. coli PNPase", "result": 1}]}]}
